Test results published in article PMC3820547.

Columns and labels:
[1] = target: Replication Protein A (Q9V1Z1, Q9V1Y9, Q9V1Z0), His-tagged RPA complex (Pyrococcus abyssi); experiment: SPR; RPA (100 nM, 10 min) held on a 5' biotinylated 32-mer ssDNA on a streptavidin surface; analytes injected at 16.67, 50, 150 and 450 nM; 25°C, PBS Tween 0.5%, 20 uL/min; referenced against ssDNA/RPA dissociation curves; 1:1 binding model
[2] = target: A1 subunit of the RNA polymerase, endogenous (Pyrococcus abyssi (endogenous in P. abyssi cell extract))
[3] = target: A2 subunit of the RNA polymerase, endogenous (Pyrococcus abyssi (endogenous in P. abyssi cell extract))

stability relative to the RPA/catalytic subunit of DNA primase complex (from the dissociation constants of Figure 2) [1] [fold]	run-off transcripts in a promoter-specific in vitro transcription assay (gdh promoter; RNAP, TBP and TFB from P. furiosus), RPA 10-50 nM [2] [fold]	run-off transcripts in a promoter-specific in vitro transcription assay (gdh promoter; RNAP, TBP and TFB from P. furiosus), RPA 10-50 nM [3] [fold]	Substance
2	–	–	DNA Polymerase D (Q9V2F3, Q9V2F4), HIS-tagged complex (from UniProt Q9V2F3 1-619; Q9V2F4 1-1455)
–	3	3	Replication Protein A (Q9V1Z1, Q9V1Y9, Q9V1Z0), His-tagged RPA complex
